Consider three substances from publication PMC9493720.

In assay [1] the target is human surfactant protein A (SP-A), native, supratrimeric (human) (UniProt Q8IWL2). Kind of assay: other fluorescence titration; intrinsic tryptophan fluorescence of SP-A (15 nM) or rfhSP-A (0.3 μM), polymyxin added at increasing concentrations, 25°C, 5 mM Tris-HCl pH 7.4 with 150 mM NaCl; apparent KD from the Hill equation.
Assay [2] deals with recombinant trimeric fragment of human SP-A1 (rfhSP-A) (human). As to the kind of experiment: other fluorescence titration; intrinsic tryptophan fluorescence of rfhSP-A, PMB added, 25°C, 5 mM Tris-HCl pH 7.4 without NaCl; apparent KD from the Hill equation.
The target of assay [3] is human surfactant protein A (SP-A), native, supratrimeric (human) (UniProt Q8IWL2). As to the kind of experiment: native gel or EMSA + other: electron microscopy + AUC; degree of oligomerization of isolated SP-A; electrophoresis under nondenaturing conditions, electron microscopy and analytical ultracentrifugation.

Turning to polymyxin B nonapeptide (PMBN), in assay [1], the Kd was found to be 260 nM.
On to polymyxin B (PMB) (peptide), for which the figures for the Kd in assay [2] and in assay [1] were 1370 nM and 320 nM, respectively.
Turning to “human surfactant protein A (SP-A), native, supratrimeric (from UniProt Q8IWL2 21-248) (natural protein)”, the stoichiometry N in assay [3] was greater than 18.
